Measured values published in patent US20230295324A1 (published 2023).

T1: human OX40 on cells (CHO-K1/hu OX40) (human, UniProt P43489 29-277)
T1 sequence (looked up): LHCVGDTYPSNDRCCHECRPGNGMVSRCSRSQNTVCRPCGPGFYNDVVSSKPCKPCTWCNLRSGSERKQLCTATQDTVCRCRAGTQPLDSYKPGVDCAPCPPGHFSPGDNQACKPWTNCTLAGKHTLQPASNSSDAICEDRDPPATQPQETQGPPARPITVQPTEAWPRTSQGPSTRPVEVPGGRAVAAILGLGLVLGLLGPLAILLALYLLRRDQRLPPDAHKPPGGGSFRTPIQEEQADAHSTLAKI

T2: human OX40 protein (Acro biosystem, #OX0-H5224) (human, UniProt P43489 29-216)
T2 construct: Bought recombinant protein
T2 sequence (looked up): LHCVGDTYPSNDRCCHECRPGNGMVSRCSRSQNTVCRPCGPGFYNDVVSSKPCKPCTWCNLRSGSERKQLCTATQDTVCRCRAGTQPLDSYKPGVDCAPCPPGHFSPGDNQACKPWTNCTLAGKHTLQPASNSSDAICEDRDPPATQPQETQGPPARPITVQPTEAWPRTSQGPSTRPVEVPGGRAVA


How the values were obtained:
[1] = molecular target: T1, human OX40 on cells (CHO-K1/hu OX40); assay: cell-based or functional assay
[2] = molecular target: T1, human OX40 on cells (CHO-K1/hu OX40); assay: FACS, CHO-K1/hu OX40 cells
Method: This example is intended to investigate the in vitro binding activity of anti-human OX40 HCAb monoclonal antibodies to human OX40. The antibody binding assay at the cellular level was performed using a stable CHO-K1 cell strain overexpressing human OX40 (CHO-K1/hu OX40). Briefly, the CHO-K1/hu OX40 cells were digested, resuspended in an F12K complete medium and washed once with PBS. The cell density was adjusted to 1×10⁶ cells/mL with PBS. The cells were seeded in a 96-well V-bottom plate (Corning, #3894) at 100 μL/well, and centrifuged, and then the supernatant was discarded. Then, the test antibodies diluted in a 3-fold gradient at concentrations that were 2 times the final concentrations were added at 100 μL/well. The cells were incubated at 4° C. for 1 h away from light. Thereafter, the cells in each well were rinsed twice with 100 μL of pre-cooled PBS, and centrifuged at 500 g at 4° C. for 5 min, and then the supernatant was discarded. […] The plate was incubated away from light at 4° C. for 30 min. The cells in each well were rinsed twice with 100 μL of pre-cooled PBS, and centrifuged at 500 g at 4° C. for 5 min, and then the supernatant was discarded. Finally, the cells in each well were resuspended in 200 μL of pre-cooled PBS, and the fluorescence signal values were read using a BD FACS CANTOII.

[3] = molecular target: T3, cynomolgus monkey OX40 protein (Novoprotein, #CB17) (cynomolgus monkey); assay: ELISA, coated cyno OX40 protein
T3 construct: Bought recombinant protein; also called cyno OX40
Method: (§1) This example is intended to investigate the in vitro binding activity of the anti-OX40 HCAb monoclonal antibodies prepared in Example 1 to human and cynomolgus monkey OX40 proteins. The antibody binding assay at the protein level was performed using a human OX40 protein (Acro biosystem, #OX0-H5224) and a cynomolgus monkey OX40 protein (Novoprotein, #CB17). Briefly, a 384-well plate (PerkinElmer, #6007509) was coated with 1 μg/mL human OX40 protein and a cynomolgus monkey OX40 protein dissolved in PBS at 20 μL/well, and incubated at 4° C. overnight. The next day, the 384-well plate was washed three times with PBS containing 0.05% Tween (MEDICAGO, #09-9410-100), and blocked with PBS containing 2% milk (Bio-Rad, #170-6404) at 37° C. for 1 h. […] The plate was added with a stop buffer (BBI life sciences, #E661006-0200) at 20 μL/well, and read for OD₄₅₀₋₆₅₀ values using a plate reader (Molecular Devices, model: SpectraMax Plus). The values were analyzed with Graphad 8.0 and plotted.

[4] = molecular target: T2, human OX40 protein (Acro biosystem, …); assay: ELISA, coated human OX40 protein
Method: as §1

[5] = molecular target: T1, human OX40 on cells (CHO-K1/hu OX40); assay: FACS, blocking of biotin-human OX40L on CHO-K1/hu OX40 cells
Method: Briefly, the CHO-K1/hu OX40 cells were digested and resuspended in an F-12K complete medium, and the cell density was adjusted to 1×10⁶ cells/mL. The cells were seeded in a 96-well V-bottom plate (Corning, #3894) at 100 μL/well, and centrifuged, and then the supernatant was discarded. The test antigen-binding proteins diluted in a 3-fold gradient at concentrations that were 2 times the final concentrations were added at 100 μL/well, and the mixture was well mixed, wherein the antigen-binding protein had the highest final concentration of 100 nM, and a total of 8 concentrations were obtained. […] The cells were incubated at 4° C. for 1 h away from light. Thereafter, the cells were centrifuged at 4° C. for 5 min, and then the supernatant was discarded. […] The cells in each well were rinsed twice with 100 μL of pre-cooled PBS, and centrifuged at 500 g at 4° C. for 5 min, and then the supernatant was discarded. A 1:200 fluorescent secondary antibody PE Streptavidin (BD Biosciences, #554061) was added at 100 μL/well, and the cells were incubated away from light at 4° C. for 30 min. The cells in each well were rinsed twice with 200 μL of pre-cooled PBS, and centrifuged at 500 g at 4° C. for 5 min, and then the supernatant was discarded. Finally, the cells in each well were resuspended in 200 μL of precooled PBS. Fluorescence signal values were read using BD FACS CANTOII, and IC50 was calculated. Inhibition rate %={average MFI of non-blocking control well−MFI value of OX40 antibody}/{(average MFI of non-blocking control well)−average MFI of 100% blocking control well)}×100%.

[6] = molecular target: T3, cynomolgus monkey OX40 protein …; assay: BLI, antibody on ProA sensor, 1:1 global fit
Method: The binding kinetics between the antigen and the antibody was analyzed by the Biolayer Interferometry (BLI) technique using an Octet Red 96e molecular interaction analyzer (Fortebio).
The association and dissociation signals between the OX40 antibodies and OX40 proteins were recorded by Octet Red 96 in real time. When data analysis was performed using Octet Data Analysis software (Fortebio, version 11.0), 0 nM was used as a reference hole, and reference subtraction was performed; the “1:1 Global fitting” method was selected to fit the data, and the kinetics parameters of the binding of antigens to antigen-binding proteins were calculated, with kon(1/Ms) values, kdis(1/s) values and KD(M) values obtained.

Binder | EC50, HEK293/OX40/NF-kb luciferase reporter [1] [nM] | Maximum fluorescence signal value, HEK293/OX40/NF-kb luciferase reporter [1] [luminescence] | EC50 [2] [nM] | Maximum MFI [2] [MFI] | EC50 [3] [nM] | Maximum OD [3] [OD] | EC50 [4] [nM] | Maximum OD [4] [OD] | IC50 [5] [nM] | Maximum inhibition rate (%) [5] [%] | Kd [6] [nM]
PR002074 (antibody, human IgG1, V domains shown, no light chain; also called anti-OX40 HCAb antibody) VH: EVQLLESGGGLVQPGGSLRLSCAASGFTFSSYAMSWVRQAPGKGLEWVSGISGGGNNTFYADSVRGRFTISRDNSKNTLYLQMNSLRAEDTAVYYCMRGWELPLLENWGQGTLVTVSS | 3.08 | 84800 | 1.27 | 3540 | 0.14 | 2.34 | 0.0512 | 2.35 | 43.1 | 81 | 
PR002071 (antibody, human IgG1, V domains shown, no light chain; also called anti-OX40 HCAb antibody) VH: EVQLVESGGGLVQPGGSLRLSCAASGFTFSSYAMSWVRQAPGKGLEWVSAISGGGGSIFYADSVRGRFTISRDNSKNTLYLQMNSLRAEDTAVYYCANGMTGTTDVDYWGQGTLVTVSS | 7.85 | 144000 | 4 | 3060 | 0.202 | 2.93 | 0.0502 | 2.45 | 51.7 | 50 | 
PR002076 (antibody, human IgG1, V domains shown, no light chain; also called anti-OX40 HCAb antibody) VH: EVQLLESGGGLVQPGGSLRLSCAASGFTFSSYAMSWVRQAPGKGLEWVSAISGSGGNTYYADSVRGRFTISRDNSKNTLYLQMNSLRAEDTAVYYCANGMTGTTDVDYWGQGTRVTVSS | 67 | 141000 | 24.6 | 1380 | 0.116 | 2.05 | 0.065 | 2.8 |  | 0 | 
PR002072 (antibody, human IgG1, V domains shown, no light chain; also called anti-OX40 HCAb antibody) VH: EVQLLESGGGLVQPGGSLRLSCAASGFTFSSYAMSWVRQASGKGLEWISAISGSGGSTYYADSVRGRFTISRDNSKNTLYLQMNSLRADDTAVYYCANGMTGTTDVDFWGQGTPVTVSS | 14.2 | 99600 | 5.64 | 1400 | 0.217 | 2.97 | 0.0577 | 2.47 |  | 14 | 
PR002058 (antibody, human IgG1, V domains shown, no light chain; also called anti-OX40 HCAb antibody) VH: EVQLLESGGGLVQPGGSLRLSCAASGFTFSSYAMSWVRQAPGKGLEWVSAISGGSGSTFYADSVRGRFTISRDNSKNTLYLQMNSLRAEDTAVYYCADGVTGTDFDFWGQGTLVTVSS | 4.29 | 136000 | 5.79 | 3560 | 0.0597 | 1.76 | 0.0629 | 1.94 | 98.1 | 38 | 
PR002073 (antibody, human IgG1, V domains shown, no light chain; also called anti-OX40 HCAb antibody) VH: EVQLVESGGGLVQPGGSLRLSCAASGFTFSSYAMSWVRQAPGKGLEWVSAISGGSGSTFYADSVRGRFTISRDNSKNTLYLQMNSLRAEDTAVYYCADGVTGTDFDFWGQGTLVTVSS | 6.39 | 121000 | 6.55 | 3260 | 0.146 | 2.55 | 0.085 | 2.38 | 75.2 | 24 | 
Pogalizumab analog (PR003475) (antibody, human IgG1, kappa, V domains shown, Conventional IgG antibody; also called Tab) VH: EVQLVQSGAEVKKPGASVKVSCKASGYTFTDSYMSWVRQAPGQGLEWIGDMYPDNGDSSYNQKFRERVTITRDTSTSTAYLELSSLRSEDTAVYYCVLAPRWYFSVWGQGTLVTVSS VL: DIQMTQSPSSLSASVGDRVTITCRASQDISNYLNWYQQKPGKAPKLLIYYTSRLRSGVPSRFSGSGSGTDFTLTISSLQPEDFATYYCQQGHTLPPTFGQGTKVEIKR |  |  |  |  | 0.194 | 2.23 |  |  |  |  | 0.0894
